Measurements published in patent US20170189505A1.

B1: SEQ ID No 285 peptide … (peptide)
peptide: HYPPVQVLF
B2: SEQ ID No 281 peptide … (peptide)
peptide: PYRLIFEKF
B3: SEQ ID No 277 peptide … (peptide)
peptide: VYQGHTALL
B4: SEQ ID No 207 peptide … (peptide)
peptide: AYVVFVSTL
B5: SEQ ID No 200 peptide … (peptide)
peptide: YYGPSLFLL
B6: SEQ ID No 268 peptide … (peptide)
peptide: QYLGQIQHI
B7: SEQ ID No 222 peptide … (peptide)
peptide: TFSVSSHLF
B8: SEQ ID No 269 peptide … (peptide)
peptide: YFIDSTNLKTHF
B9: SEQ ID No 218 peptide … (peptide)
peptide: YYKSTSSAF
B10: SEQ ID No 199 peptide … (peptide)
peptide: RYAEEVGIF
B11: SEQ ID No 287 peptide … (peptide)
peptide: LYITEPKTI
B12: SEQ ID No 270 peptide … (peptide)
peptide: NYYEVHKELF
B13: SEQ ID No 209 peptide … (peptide)
peptide: TYKDEGNDYF
B14: SEQ ID No 204 peptide … (peptide)
peptide: TYELRYFQI
B15: SEQ ID No 202 peptide … (peptide)
peptide: VYWDSAGAAHF
B16: SEQ ID No 201 peptide … (peptide)
peptide: IYATEAHVF

Biological target: HLA-A*24 (human)
Experiment: UV peptide exchange, anti-b2m ELISA

Row | peptide exchange yield | Binder
1 | 50 to 75% | B1
2 | 20 to 49% | B2
3 | > 75% | B3
4 | 20 to 49% | B4
5 | 50 to 75% | B5
6 | 50 to 75% | B6
7 | 50 to 75% | B7
8 | 50 to 75% | B8
9 | 50 to 75% | B9
10 | 50 to 75% | B10
11 | 50 to 75% | B11
12 | 50 to 75% | B12
13 | 50 to 75% | B13
14 | > 75% | B14
15 | > 75% | B15
16 | 50 to 75% | B16
